Legend:
human RANTES/CCL5 [1] = target: T1, human RANTES/CCL5 (human, UniProt P13501 24-91); assay: cell-based or functional assay
T1 sequence: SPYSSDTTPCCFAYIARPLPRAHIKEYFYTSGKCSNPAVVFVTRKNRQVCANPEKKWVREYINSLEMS

human MIP-1α/CCL3 [2] = target: T2, human MIP-1α/CCL3 (human, UniProt P10147 24-92); assay: cell-based or functional assay
T2 sequence: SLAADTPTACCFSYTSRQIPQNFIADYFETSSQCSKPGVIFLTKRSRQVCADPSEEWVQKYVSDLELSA

human MIP-1α/CCL3 [3] = target: T2, human MIP-1α/CCL3; assay: ELISA, hybridoma fusion-well supernatant on coated MIP-1α; background approx. 0.150
I-309 = target: T3, I-309; assay: MSD electrochemiluminescence assay; chemokine coated at 1 µg/mL, 3C12F at 3 µg/mL; background = BSA
T3 construct: also called I-309/CCL1; CCL1
T3 chemokine: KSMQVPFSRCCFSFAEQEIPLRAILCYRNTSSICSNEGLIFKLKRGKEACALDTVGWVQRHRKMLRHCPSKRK

human HCC-2/MIP-1δ/CCL15 = target: T4, human HCC-2/MIP-1δ/CCL15 (human, UniProt Q16663 46-113); assay: as above
T4 sequence: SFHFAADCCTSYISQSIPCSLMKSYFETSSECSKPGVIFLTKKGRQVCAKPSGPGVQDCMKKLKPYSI

MDC = target: T5, MDC; assay: as above
T5 construct: also called MDC/CCL22; CCL22
T5 chemokine: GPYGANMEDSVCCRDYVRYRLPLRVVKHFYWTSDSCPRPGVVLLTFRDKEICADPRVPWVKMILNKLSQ

IL-8 = target: T6, IL-8; assay: as above
T6 construct: also called IL-8/CXCL8; CXCL8

MCP-3 = target: T7, MCP-3; assay: as above
T7 construct: also called MCP-3/CCL7; CCL7

human MCP-1/CCL2 [4] = target: T8, human MCP-1/CCL2 (human, UniProt P13500 24-99); assay: as above
T8 construct: also called Biotin-MCP1

ELC = target: T9, ELC; assay: as above
T9 construct: also called ELC/MIP-3β/CCL19; CCL19
T9 chemokine: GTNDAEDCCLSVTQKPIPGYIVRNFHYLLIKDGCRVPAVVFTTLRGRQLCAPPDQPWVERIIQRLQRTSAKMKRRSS

human MPIF-1/CCL23 = target: T10, human MPIF-1/CCL23 (human, UniProt P55773 46-120); assay: as above
T10 sequence: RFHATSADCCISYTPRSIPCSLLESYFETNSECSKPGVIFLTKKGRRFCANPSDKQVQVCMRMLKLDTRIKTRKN

human HCC-1/CCL14/CCL14a = target: T11, human HCC-1/CCL14/CCL14a (human, UniProt Q16627 28-93); assay: as above
T11 sequence: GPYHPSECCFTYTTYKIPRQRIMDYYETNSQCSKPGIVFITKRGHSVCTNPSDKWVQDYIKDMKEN

HCC-4 = target: T12, HCC-4; assay: as above
T12 construct: also called HCC-4/CCL16; CCL16
T12 chemokine: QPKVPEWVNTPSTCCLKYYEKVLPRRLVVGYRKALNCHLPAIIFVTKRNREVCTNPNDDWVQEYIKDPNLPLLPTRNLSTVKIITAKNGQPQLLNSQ

human PARC/CCL18 = target: T13, human PARC/CCL18 (human, UniProt P55774 21-89); assay: as above
T13 sequence: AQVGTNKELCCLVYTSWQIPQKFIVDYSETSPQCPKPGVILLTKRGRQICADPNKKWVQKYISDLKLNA

SDF = target: T14, SDF; assay: as above
T14 construct: also called SDF-1/CXCL12; CXCL12

MCP-4 = target: T15, MCP-4; assay: as above
T15 construct: also called MCP-4/CCL13; CCL13

human MIP-1α/CCL3 [5] = target: T2, human MIP-1α/CCL3; assay: BIAcore (SPR)
mouse MIP-1α/CCL3 = target: T16, mouse MIP-1α/CCL3 (mouse, UniProt P10855 24-92); assay: MSD electrochemiluminescence, chemokine coated at 1 µg/mL
T16 construct: also called muMIP-1α
T16 sequence: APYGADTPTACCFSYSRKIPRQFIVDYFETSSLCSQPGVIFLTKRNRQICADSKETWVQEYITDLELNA

mouse RANTES/CCL5 = target: T17, mouse RANTES/CCL5 (mouse, UniProt P30882 24-91); assay: as above
T17 construct: also called muRANTES

mouse MIP-1β/CCL4 = target: T18, mouse MIP-1β/CCL4 (mouse, UniProt P14097 24-92); assay: as above
T18 construct: also called muMIP-1β
T18 sequence: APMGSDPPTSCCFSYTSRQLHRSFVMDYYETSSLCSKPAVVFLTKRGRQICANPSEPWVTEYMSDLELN

human MIP-1β/CCL4 = target: T19, human MIP-1β/CCL4 (human, UniProt Q8NHW4 24-92); assay: ELISA, hybridoma fusion-well supernatant on biotinylated chemokine on streptavidin plate; background approx. 0.150
T19 construct: also called Biotin-MIP-1β
T19 chain: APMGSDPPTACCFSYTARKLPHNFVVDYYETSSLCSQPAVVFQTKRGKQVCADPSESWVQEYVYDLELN

human RANTES/CCL5 [6] = target: T1, human RANTES/CCL5; assay: as above
human MCP-1/CCL2 [7] = target: T8, human MCP-1/CCL2; assay: as above

T8 sequence (P13500 24-99 limits assumed): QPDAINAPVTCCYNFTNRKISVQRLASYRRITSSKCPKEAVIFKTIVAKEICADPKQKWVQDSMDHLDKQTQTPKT
T7 sequence (chemokine, as listed by the source): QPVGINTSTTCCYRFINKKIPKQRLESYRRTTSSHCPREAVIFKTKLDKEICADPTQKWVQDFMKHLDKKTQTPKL
T17 sequence (P30882 24-91 limits assumed): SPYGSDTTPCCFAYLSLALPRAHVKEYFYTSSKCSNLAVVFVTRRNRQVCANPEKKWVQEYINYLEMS
T14 sequence (chemokine, as listed by the source): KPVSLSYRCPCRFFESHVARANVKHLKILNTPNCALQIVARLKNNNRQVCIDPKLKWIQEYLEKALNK
T15 sequence (chemokine, as listed by the source): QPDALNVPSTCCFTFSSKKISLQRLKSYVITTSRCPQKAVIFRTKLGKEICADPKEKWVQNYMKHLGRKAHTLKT
T6 sequence (chemokine, as listed by the source): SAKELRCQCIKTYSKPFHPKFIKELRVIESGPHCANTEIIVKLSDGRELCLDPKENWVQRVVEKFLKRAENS

B1: monoclonal antibody 3C12F (antibody, V domains shown)
VH: EVQLQQSGAELVKPGASVKLSCTASGFNIKDTYIHWVKQRPEQGLEWIGRIDPANGNTQYDPKFQGKATITADTSSNTAYLQLTSLTSEDTAVYYCARRWDYDYAMDYWGQGTSVTVSS
VL: DIQMTQSPASLSASVGETVTITCRGSGNIHNYLAWYQQKQGKSPQLLVYNAKTLADGVPSRFSGSGSGTQYSLKINSLQPEDFGSYYCQHFWSTPYTFGGGTKLEIK
notes: also called MAb 3C12F
IC50 of inhibition of chemotaxis (5 ng/mL chemokine) (human RANTES/CCL5 [1]): 3 to 5 µg/mL | IC50 of inhibition of chemotaxis (5 ng/mL chemokine) (human MIP-1α/CCL3 [2]): 3 to 5 µg/mL | ELISA signal (human MIP-1α/CCL3 [3]): 1.84 | binding result (I-309): no binding (tested: 3 µg/mL) | binding result (human HCC-2/MIP-1δ/CCL15): binds | binding result (MDC): no binding (tested: 3 µg/mL) | binding result (IL-8): no binding (tested: 3 µg/mL) | binding result (MCP-3): no binding (tested: 3 µg/mL) | binding result (human MCP-1/CCL2 [4]): no binding (tested: 3 µg/mL) | binding result (ELC): no binding (tested: 3 µg/mL) | binding result (human MPIF-1/CCL23): binds | binding result (human HCC-1/CCL14/CCL14a): no binding (tested: 3 µg/mL) | binding result (HCC-4): no binding (tested: 3 µg/mL) | binding result (human PARC/CCL18): no binding (tested: 3 µg/mL) | binding result (SDF): no binding (tested: 3 µg/mL) | binding result (MCP-4): no binding (tested: 3 µg/mL) | Kd (human MIP-1α/CCL3 [5]): 49 nM | binding result (mouse MIP-1α/CCL3): no binding (tested: 3 µg/mL) | binding result (mouse RANTES/CCL5): no binding (tested: 3 µg/mL) | binding result (mouse MIP-1β/CCL4): no binding (tested: 3 µg/mL) | ELISA signal (human MIP-1β/CCL4): 1.92 | ELISA signal (human RANTES/CCL5 [6]): 2.61 | ELISA signal (human MCP-1/CCL2 [7]): 0.189

— patent publication US20150166647A1 (VLST, published 2015)
